In US8114968 (dated 2012):
Where two headings read alike, the source gives them in different places.

Columns and labels:
[1] = target: M107-A12
[2] = target: M121-E07
[3] = target: M109-G11
[4] = target: M118-F11
[5] = target: T1, murine MMP-12 (UniProt P34960 110-473); assay: enzyme inhibition; recombinant; peptide substrate
[6] = target: T2, human MMP-12 (UniProt P39900 106-470)
[7] = target: T1, murine MMP-12; assay: enzyme inhibition
[8] = target: T1, murine MMP-12
[9] = target: T2, human MMP-12; assay: enzyme inhibition
[10] = target: M088-H10
Sequence of M088-H10 (P34960 110-473): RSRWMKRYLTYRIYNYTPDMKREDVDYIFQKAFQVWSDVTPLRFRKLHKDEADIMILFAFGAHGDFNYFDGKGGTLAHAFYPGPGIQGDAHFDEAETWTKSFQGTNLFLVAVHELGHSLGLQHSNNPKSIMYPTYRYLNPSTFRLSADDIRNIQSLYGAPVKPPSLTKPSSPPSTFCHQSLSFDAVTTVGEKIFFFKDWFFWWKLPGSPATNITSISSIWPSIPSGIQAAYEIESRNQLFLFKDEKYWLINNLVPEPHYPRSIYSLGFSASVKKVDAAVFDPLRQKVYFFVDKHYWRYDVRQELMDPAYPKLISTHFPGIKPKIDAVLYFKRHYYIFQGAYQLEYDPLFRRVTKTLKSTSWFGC

[11] = target: M107-A12; remark: listed apart in the source
Target sequence in this assay (P34960 110-473): as above

[12] = target: M109-G11; remark: listed apart in the source
Target sequence in this assay (P34960 110-473): as above

[13] = target: M121-E07; assay: -; column head prints nM
Target sequence in this assay (P34960 110-473): as above

[14] = target: M118-F11; assay: -; column head prints nM
Target sequence in this assay (P34960 110-473): as above

[15] = target: T1, murine MMP-12; assay: -; column head prints nM

T1 sequence (P34960 110-473): as above

B1: Human MMP12 (enzyme)
chain: GPVWRKHYITYRINNYTPDMNREDVDYAIRKAFQVWSNVTPLKFSKINTGMADILVVFARGAHGDFHAFDGKGGILAHAFGPGSGIGGDAHFDEDEFWTTHSGGTNLFLTAVHEIGHSLGLGHSSDPKAVMFPTYKYVDINTFRLSADDIRGIQSLYGDPKENQRLPNPDNSEPALCDPNLSFDAVTTVGNKIFFFKDRFFWLKVSERPKTSVNLISSLWPTLPSGIEAAYEIEARNQVFLFKDDKYWLISNLRPEPNYPKSIHSFGFPNFVKKIDAAVFNPRFYRTYFFVDNQYWRYDERRQMMDPGYPKLITKNFQGIGPKIDAVFYSKNKYYYFFQGSNQFEYDFLLQRITKTLKSNSWFGC
Binder B1 has a Kd [1] of 1.8 nM, a Kd [2] of 0.197 nM and a Kd [3] of 7.5 nM. The Kd [4] was 1.17 nM.

B2: 539B-M0008-H09 (format not stated) (antibody, V domains shown)
VH: EVQLLESGGGLVQPGGSLRLSCAASGFTFSDYNMHWVRQAPGKGLEWVSYIGPSGGYTHYADSVKGRFTISRDNSKNTLYLQMNSLRAEDTAVYYCAKDIRGAYSSGLFDYWGRGTLVTVSS
VL: DIQMTQSPSSLSASVGDRVTITCRANQSIYTYLNWYQQKPGKAPELLIYAASSLQSGVPSRFSGSGSGTDFTLTISSLQPEDFATYYCQQAGIFGQGTKLEIK
With B2 the IC50 [5] was 3.7 nM and the Kd [6] was 18 nM.

B3: 539B-M0011-H11 Fab (Fab, V domains shown)
VH: EVQLLESGGGLVQPGGSLRLSCAASGFTFSWYNMWWVRQAPGKGLEWVSYIYPSGGNTGYADSVKGRFTISRDNSKNTLYLQMNSLRAEDTAVYYCAVFEYSSSGPQGYWGQGTLVTVSS
VL: QSALTQPPSVSVAPGQTARITCGGNNIGTKSVHWYQQKSGQAPVLVVYDNSDRPSGIPERFSGSNSGNTATLTISRVEAGDEADYYCQVWDNSIDHVVFGGGTKLTVL
B3 was tested, and the IC50 [7] was 9 nM.

B4: 539B-M0065-E12 (Fab, V domains shown)
VH: EVQLLESGGGLVQPGGSLRLSCAASGFTFSWYNMHWVRQAPGKGLEWVSGISPSGGNTMYADSVKGRFTISRDNSKNTLYLQMNSLRAEDTAVYYCAKDIRGAYSSGLFDYWGRGTLVTVSS
VL: DIQMTQSPSSLSASVGDRVTITCRANQSIYTYLNWYQQKPGKAPELLIYAASSLQSGVPSRFSGSGSGTDFTLTISSLQPEDFATYYCQQAGIFGQGTKLEIK
Work on B4 yielded a Kd [6] of 1.1 nM and a Kd [8] of 1.7 nM.

B5: 539B-M131A06-GA-S (antibody, V domains shown)
VH: EVQLLESGGGLVQPGGSLRLSCAASGFTFSWYWMHWVRQAPGKGLEWVSGISPSGGMTMYADSVKGRFTISRDNSKNTLYLQMNSLRAEDTAVYYCARDIVGPYSAGLFDYWGRGTLVTVSS
VL: DIQMTQSPSSLSASVGDRVTITCRASQSIYTYLNWYQQKPGKAPKLLIYAASSLQSGVPSRFSGSGSGTDFTLTISSLQPEDFATYYCQQAGIFGQGTKLEIKR
In the case of B5, the IC50 [9] is reported as 0.233 nM.

B6: Mouse MMP12 (enzyme)
chain: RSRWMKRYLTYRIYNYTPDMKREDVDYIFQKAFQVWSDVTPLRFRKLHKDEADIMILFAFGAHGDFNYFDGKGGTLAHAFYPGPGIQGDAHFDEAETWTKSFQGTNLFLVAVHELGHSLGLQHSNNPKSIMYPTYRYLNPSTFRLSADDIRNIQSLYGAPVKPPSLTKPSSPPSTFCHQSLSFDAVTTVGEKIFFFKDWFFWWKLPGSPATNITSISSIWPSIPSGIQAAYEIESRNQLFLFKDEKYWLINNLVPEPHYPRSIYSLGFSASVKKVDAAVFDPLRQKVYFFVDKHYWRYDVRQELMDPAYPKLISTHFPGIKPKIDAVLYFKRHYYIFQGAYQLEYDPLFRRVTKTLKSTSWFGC
Binder B6 has a Kd [10] of 34.4 nM, a Kd [11] of 0.9 nM and a Kd [12] of 1 nM. The Kd [13] was 0.181 nM and the Kd [14] was 0.727 nM.

B7: 539B-M0071-H03 (Fab, V domains shown)
VH: EVQLLESGGGLVQPGGSLRLSCAASGFTFSPYWMHWVRQAPGKGLEWVSGIGPSGGPTFYADSIKGRFTISRDNSKNTLYLQMNSLRAEDTAVYYCAKDIRGAYSSGLFDYWGRGTLVTVSS
VL: DIQMTQSPSSLSASVGDRVTITCRANQSIYTYLNWYQQKPGKAPELLIYAASSLQSGVPSRFSGSGSGTDFTLTISSLQPEDFATYYCQQAGIFGQGTKLEIK
B7 showed a Kd [6] of 1 nM.

B8: 539B-M11H11 IgG (antibody, V domains shown)
VH: EVQLLESGGGLVQPGGSLRLSCAASGFTFSWYNMWWVRQAPGKGLEWVSYIYPSGGNTGYADSVKGRFTISRDNSKNTLYLQMNSLRAEDTAVYYCAVFEYSSSGPQGYWGQGTLVTVSS
VL: QSALTQPPSVSVAPGQTARITCGGNNIGTKSVHWYQQKSGQAPVLVVYDNSDRPSGIPERFSGSNSGNTATLTISRVEAGDEADYYCQVWDNSIDHVVFGGGTKLTVL
For B8, the IC50 [7] was 3 nM.

B9: 539B-M131A06 (antibody, V domains shown)
VH: EVQLLESGGGLVQPGGSLRLSCAASGFTFSWYWMHWVRQAPGKGLEWVSGISPSGGMTMYADSVKGRFTISRDNSKNTLYLQMNSLRAEDTAVYYCARDIVGPYSAGLFDYWGRGTLVTVSS
VL: DIQMTQSPSSLSASVGDRVTITCRANQSIYTYLNWYQQKPGKAPELLIYAASSLQSGVPSRFSGSGSGTDFTLTISSLQPEDFATYYCQQAGIFGQGTKLEIK
Binder B9 has a Kd [15] of 0.0727 nM, an IC50 [9] of 0.321 nM and a Kd [6] of 0.18 nM.

B10: 539B-M0071-D09 (Fab, V domains shown)
VH: EVQLLESGGGLVQPGGSLRLSCAASGFTFSPYWMHWVRQAPGKGLEWVSGISSSGGDTLYADSVKGRFTISRDNSKNTLYLQMNSLRAEDTAVYYCAKDIRGAYSSGLFDYWGRGTLVTVSS
VL: DIQMTQSPSSLSASVGDRVTITCRANQSIYTYLNWYQQKPGKAPELLIYAASSLQSGVPSRFSGSGSGTDFTLTISSLQPEDFATYYCQQAGIFGQGTKLEIK
For B10, the Kd [6] was 4.2 nM and the Kd [8] was 1.3 nM.

B11: 539B-M0069-D10 (Fab, V domains shown)
VH: EVQLLESGGGLVQPGGSLRLSCAASGFTFSLYHMHWVRQAPGKGLEWVSGIGPSGGWTIYADSVKGRFTISRDNSKNTLYLQMNSLRAEDTAVYYCAKDIRGAYSSGLFDYWGRGTLVTVSS
VL: DIQMTQSPSSLSASVGDRVTITCRANQSIYTYLNWYQQKPGKAPELLIYAASSLQSGVPSRFSGSGSGTDFTLTISSLQPEDFATYYCQQAGIFGQGTKLEIK
Work on B11 yielded a Kd [6] of 5.7 nM and a Kd [8] of 3.4 nM.
